The target in the experiment is human Kv1.3 potassium channel (human) (UniProt P22001).
Chain of human Kv1.3 potassium channel (human) (P22001 whole entry): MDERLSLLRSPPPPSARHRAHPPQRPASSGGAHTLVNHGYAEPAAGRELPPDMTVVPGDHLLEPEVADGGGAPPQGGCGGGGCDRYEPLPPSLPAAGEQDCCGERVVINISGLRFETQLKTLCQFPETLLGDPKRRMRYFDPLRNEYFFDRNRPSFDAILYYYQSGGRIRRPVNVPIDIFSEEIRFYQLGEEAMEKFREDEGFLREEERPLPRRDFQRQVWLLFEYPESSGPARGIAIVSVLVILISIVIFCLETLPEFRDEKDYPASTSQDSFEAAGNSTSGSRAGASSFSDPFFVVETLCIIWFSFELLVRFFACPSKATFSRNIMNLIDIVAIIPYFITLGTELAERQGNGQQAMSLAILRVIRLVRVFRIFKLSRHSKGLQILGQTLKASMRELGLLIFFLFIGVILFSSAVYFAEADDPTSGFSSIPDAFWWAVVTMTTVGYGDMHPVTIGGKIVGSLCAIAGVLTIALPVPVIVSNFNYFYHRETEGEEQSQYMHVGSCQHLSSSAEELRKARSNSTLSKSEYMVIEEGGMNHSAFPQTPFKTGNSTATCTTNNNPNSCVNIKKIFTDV

Chain of KTX-2 peptide (P45696 23-59): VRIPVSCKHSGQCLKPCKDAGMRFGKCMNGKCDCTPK
Chain of KTX-3 peptide (P59290 whole entry): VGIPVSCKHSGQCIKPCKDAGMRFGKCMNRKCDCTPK

“KTX-2 peptide (from UniProt P45696 23-59)” showed an IC50 of inhibition of hKv1.3 channel currents (whole-cell patch clamp, HEK293T) of 0.32 nM and an inhibition of hKv1.3 channel currents by 1 μM peptide (whole-cell patch clamp, HEK293T) of 94.9%.

Turning to “KTX-3 peptide (from UniProt P59290 1-37)”, the IC50 of inhibition of hKv1.3 channel currents (whole-cell patch clamp, HEK293T) was 0.46 nM and the inhibition of hKv1.3 channel currents by 1 μM peptide (whole-cell patch clamp, HEK293T) was determined as 91.6%.

(Values after PMC11819763, “Activity of Potassium Channel BmK-NSPK Inhibitor Regulated by Basic Amino Acid Residues: Novel Insight into the Diverse Peptide Pharmacology” (Molecules, 2025).)
